Reference: patent US20020164609A1 (SCHERING, published 2002)

T1: Flag-tagged mouse WSX-1 on BaF3 cells (F-mWSX-1) (mouse, UniProt O70394 25-623)
T1 construct: whole, on cells; Retroviral pMX construct expressed on the surface of Ba/F3 cells
T1 sequence (looked up): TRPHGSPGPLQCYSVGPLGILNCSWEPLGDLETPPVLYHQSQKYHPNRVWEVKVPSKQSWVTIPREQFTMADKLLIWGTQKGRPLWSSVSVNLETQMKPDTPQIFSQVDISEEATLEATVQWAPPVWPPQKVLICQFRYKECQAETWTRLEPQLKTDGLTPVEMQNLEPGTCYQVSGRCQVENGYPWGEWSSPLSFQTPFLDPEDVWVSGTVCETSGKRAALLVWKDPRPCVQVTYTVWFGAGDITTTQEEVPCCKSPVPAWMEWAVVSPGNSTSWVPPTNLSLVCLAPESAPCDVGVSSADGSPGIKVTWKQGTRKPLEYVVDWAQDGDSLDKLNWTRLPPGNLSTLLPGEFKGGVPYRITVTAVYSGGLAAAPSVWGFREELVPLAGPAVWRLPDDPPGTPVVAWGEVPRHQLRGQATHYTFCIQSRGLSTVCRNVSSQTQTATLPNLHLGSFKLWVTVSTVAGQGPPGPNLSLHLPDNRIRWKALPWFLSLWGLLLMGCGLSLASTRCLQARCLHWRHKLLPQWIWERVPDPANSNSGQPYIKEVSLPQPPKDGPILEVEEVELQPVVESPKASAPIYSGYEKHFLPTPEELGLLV

T2: Flag-tagged human WSX-1/TCCR on Ba/F3 cells (F-hWSX-1) (human, UniProt Q6UWB1 33-636)
T2 construct: Retroviral pMX construct expressed on the surface of Ba/F3 cells; also called hNR30; F-tagged WSX-1/TCCR
T2 sequence: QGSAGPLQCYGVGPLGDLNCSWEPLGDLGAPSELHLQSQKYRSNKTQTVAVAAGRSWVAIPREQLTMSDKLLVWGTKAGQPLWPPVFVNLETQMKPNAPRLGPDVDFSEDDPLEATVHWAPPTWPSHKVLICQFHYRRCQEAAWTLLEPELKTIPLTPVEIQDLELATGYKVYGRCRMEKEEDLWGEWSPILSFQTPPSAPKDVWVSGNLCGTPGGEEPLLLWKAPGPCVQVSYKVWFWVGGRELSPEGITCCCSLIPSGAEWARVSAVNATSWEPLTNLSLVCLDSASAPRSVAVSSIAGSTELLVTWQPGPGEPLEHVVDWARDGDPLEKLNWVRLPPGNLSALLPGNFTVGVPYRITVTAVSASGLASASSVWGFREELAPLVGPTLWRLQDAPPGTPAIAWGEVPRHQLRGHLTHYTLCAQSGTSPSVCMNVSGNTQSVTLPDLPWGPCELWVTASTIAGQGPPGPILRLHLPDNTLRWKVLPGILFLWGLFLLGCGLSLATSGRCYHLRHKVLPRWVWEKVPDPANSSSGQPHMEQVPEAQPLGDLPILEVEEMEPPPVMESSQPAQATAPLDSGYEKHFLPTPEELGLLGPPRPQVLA

T3: soluble human WSX-1/TCCR with C-terminal RGSH6 tag (shWSX-1-R) (human, UniProt Q6UWB1 33-516)
T3 construct: Produced in HEK293T supernatants; also called shNR30R; soluble hWSX-1-R
T3 sequence: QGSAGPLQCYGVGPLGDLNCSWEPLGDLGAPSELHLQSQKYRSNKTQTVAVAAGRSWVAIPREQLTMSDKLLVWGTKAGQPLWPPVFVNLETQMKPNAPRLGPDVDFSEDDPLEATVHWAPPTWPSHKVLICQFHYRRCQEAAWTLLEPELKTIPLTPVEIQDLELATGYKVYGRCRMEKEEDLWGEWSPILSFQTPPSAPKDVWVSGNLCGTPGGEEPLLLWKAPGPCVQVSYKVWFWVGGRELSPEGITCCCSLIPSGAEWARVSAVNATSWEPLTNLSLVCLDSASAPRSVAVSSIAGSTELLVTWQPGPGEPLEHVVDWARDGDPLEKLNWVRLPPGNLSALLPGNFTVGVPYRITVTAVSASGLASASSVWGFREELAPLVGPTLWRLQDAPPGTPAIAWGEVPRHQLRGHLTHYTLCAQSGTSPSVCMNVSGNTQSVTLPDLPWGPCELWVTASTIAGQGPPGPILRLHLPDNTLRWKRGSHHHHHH


Tests used:
[1] = molecular target: T1, Flag-tagged mouse WSX-1 on BaF3 cells …; assay: flow cytometry on mWSX-1-expressing BaF3 cells
[2] = molecular target: T2, Flag-tagged human WSX-1/TCCR on Ba/F3 …; assay: flow cytometry on BaF3 cells expressing F-hWSX-1, two hours incubation
[3] = molecular target: T3, soluble human WSX-1/TCCR with …; assay: co-immunoprecipitation and western blot; F-hEBI3 alone against shWSX-1-R supernatant
Experimental: The primary pricipitates were washed and then incubated with HEK293T cell supernatants containing shWSX-1-R. Secondary precipitates were separated by SDS-PAGE and subjected to western blot. Precipitaited proteins were visualized by ECL using antibodies against the respective protein tags.

Row | Binder | binding result [1] | also measured
1 | E-tagged mouse IL-D80 (mIL-D80-E) (ligand, also called mp28-E; mouse p28; not shown: E-tag from the pCDM8-etag vector) FPTDPLSLQELRREFTVSLYLARKLLSEVQGYVHSFAESRLPGVNLDLLPLGYHLPNVSLTFQAWHHLSDSERLCFLATTLRPFPAMLGGLGTQGTWTSSEREQLWAMRLDLRDLHRHLRFQVLAAGFKCSKEEEDKEEEEEEEEEEKKLPLGALGGPNQVSSQVSWPQLLYTYQLLHSLELVLSRAVRDLLLLSLPRRPGSAWDS | no binding | 
2 | mouse EBI3-Ig fusion (mEBI3-Ig) (Fc fusion, UniProt O35228 19-228, looked up, mature; Secreted fusion protein; not shown: Ig part from the pME18S-Ig vector) YTETALVALSQPRVQCHASRYPVAVDCSWTPLQAPNSTRSTSFIATYRLGVATQQQSQPCLQRSPQASRCTIPDVHLFSTVPYMLNVTAVHPGGASSSLLAFVAERIIKPDPPEGVRLRTAGQRLQVLWHPPASWPFPDIFSLKYRLRYRRRGASHFRQVGPIEATTFTLRNSKPHAKYCIQVSAQDLTDYGKPSDWSLPGQVESAPHKP | no binding | 
3 | human EBI3-Ig fusion (hEBI3-Ig) (Fc fusion, Secreted fusion protein; also called EB133-Ig (so in the source); not shown: Ig part from the pME18S-Ig vector) RKGPPAALTLPRVQCRASRYPIAVDCSWTLPPAPNSTSPVSFIATYRLGMAARGHSWPCLQQTPTSTSCTITDVQLFSMAPYVLNVTAVHPWGSSSSFVPFITEHIIKPDPPEGVRLSPLAERHVQVQWEPPGSWPFPEIFSLKYWIRYKRQGAARFHRVGPIEATSFILRAVRPRARYYVQVAAQDLTDYGELSDWSLPATATMSLGK |  | binding result [2]: no binding
4 | Flag-tagged human EBI3 (F-hEBI3) (other, Mature portion of human EBI3 cloned into pFlagCMV-1, produced in HEK293T cells; also called human Epstein-Barr virus-induced gene 3; not shown: N-terminal Flag tag from pFlagCMV-1) RKGPPAALTLPRVQCRASRYPIAVDCSWTLPPAPNSTSPVSFIATYRLGMAARGHSWPCLQQTPTSTSCTITDVQLFSMAPYVLNVTAVHPWGSSSSFVPFITEHIIKPDPPEGVRLSPLAERHVQVQWEPPGSWPFPEIFSLKYWIRYKRQGAARFHRVGPIEATSFILRAVRPRARYYVQVAAQDLTDYGELSDWSLPATATMSLGK |  | binding result [3]: no binding
